Source: PMC7933254

Target: RhoA (blot label: Myc (RhoA); legend: RhoA-GFP)
Assay: co-immunoprecipitation (IP: Myc (RhoA)) with densitometry
Settings: MN-1 cells, mean ± SEM, parent: est. 1.0, read off a plot

- ratio to parent (R237L TRPV4-FLAG alone, no TRPV4-GFP co-expressed (lane 4), n = 5): 0.05
- ratio to parent (R237L TRPV4-FLAG co-expressed with WT TRPV4-GFP (lane 5), n = 4): 0.04
Substance: TRPV4-FLAG (wild type), expressed in MN-1 cells (from UniProt Q9HBA0) R237L
